Measurements: the supplement of paper PMC10567573

B1: KCNK9 (parent)
chain: DVPDLQSVCSCTCYRSQDYGGRSV

Variants of: B1
Experiment: protein stability index of a GFP-peptide fusion (GPS, HEK-293T) (PSI 1-6); higher = more stable
Conditions: c terminus: a fixed tail appended
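Also: lentivirally expressed fusions sorted by FACS into six bins by GFP to DsRed ratio, PSI derived from sequencing read proportions per bin multiplied by bin number.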

Variant | protein stability index
DVPDLHSVCSCTCYRSQDYGGRSV [Q6H] | 1.88
DVPDLISVCSCTCYRSQDYGGRSV [Q6I] | 2.39
DVPDLRSVCSCTCYRSQDYGGRSV [Q6R] | 2.73
DVPDLSSVCSCTCYRSQDYGGRSV [Q6S] | 1.59
DVPDLCSVCSCTCYRSQDYGGRSV [Q6C] | 2.56
DVPDLGSVCSCTCYRSQDYGGRSV [Q6G] | 1.63
DVPDLNSVCSCTCYRSQDYGGRSV [Q6N] | 1.82
DVPDLASVCSCTCYRSQDYGGRSV [Q6A] | 1.65
DVPDLESVCSCTCYRSQDYGGRSV [Q6E] | 1.3
DVPDLMSVCSCTCYRSQDYGGRSV [Q6M] | 2.61
DVPDLKSVCSCTCYRSQDYGGRSV [Q6K] | 1.98
DVPDLDSVCSCTCYRSQDYGGRSV [Q6D] | 2.27
DWPDLQSVCSCTCYRSQDYGGRSV [V2W] | 1.68
DIPDLQSVCSCTCYRSQDYGGRSV [V2I] | 1.78
DAPDLQSVCSCTCYRSQDYGGRSV [V2A] | 1.84
DNPDLQSVCSCTCYRSQDYGGRSV [V2N] | 2.7
DYPDLQSVCSCTCYRSQDYGGRSV [V2Y] | 1.82
DEPDLQSVCSCTCYRSQDYGGRSV [V2E] | 2.93
DQPDLQSVCSCTCYRSQDYGGRSV [V2Q] | 1.59
DTPDLQSVCSCTCYRSQDYGGRSV [V2T] | 2.57
DHPDLQSVCSCTCYRSQDYGGRSV [V2H] | 1.67
DKPDLQSVCSCTCYRSQDYGGRSV [V2K] | 2.43
DCPDLQSVCSCTCYRSQDYGGRSV [V2C] | 2.07
DDPDLQSVCSCTCYRSQDYGGRSV [V2D] | 1.78

Variant | protein stability index
DRPDLQSVCSCTCYRSQDYGGRSV [V2R] | 2.2
DPPDLQSVCSCTCYRSQDYGGRSV [V2P] | 1.55
DGPDLQSVCSCTCYRSQDYGGRSV [V2G] | 1.5
DFPDLQSVCSCTCYRSQDYGGRSV [V2F] | 1.69
DMPDLQSVCSCTCYRSQDYGGRSV [V2M] | 2.31
DSPDLQSVCSCTCYRSQDYGGRSV [V2S] | 2.19
DVPDSQSVCSCTCYRSQDYGGRSV [L5S] | 1.41
DVPDVQSVCSCTCYRSQDYGGRSV [L5V] | 2.4
DVPDTQSVCSCTCYRSQDYGGRSV [L5T] | 2.12
DVPDHQSVCSCTCYRSQDYGGRSV [L5H] | 1.82
DVPDQQSVCSCTCYRSQDYGGRSV [L5Q] | 2.38
DVPDMQSVCSCTCYRSQDYGGRSV [L5M] | 1.79
DVPDWQSVCSCTCYRSQDYGGRSV [L5W] | 1.71
DVPDGQSVCSCTCYRSQDYGGRSV [L5G] | 1.65
DVPDDQSVCSCTCYRSQDYGGRSV [L5D] | 2.42
DVPDYQSVCSCTCYRSQDYGGRSV [L5Y] | 1.71
DVPDRQSVCSCTCYRSQDYGGRSV [L5R] | 1.77
DVPDKQSVCSCTCYRSQDYGGRSV [L5K] | 1.9
DVPDEQSVCSCTCYRSQDYGGRSV [L5E] | 3.6
DVPDIQSVCSCTCYRSQDYGGRSV [L5I] | 2.54
DVPDAQSVCSCTCYRSQDYGGRSV [L5A] | 1.63
DVPDFQSVCSCTCYRSQDYGGRSV [L5F] | 2.15
DVPDPQSVCSCTCYRSQDYGGRSV [L5P] | 2.64
DVPDNQSVCSCTCYRSQDYGGRSV [L5N] | 2.19
